B1: recombinant MnmE (rMnmE, 53 kDa) (natural protein, E. coli, UniProt P25522 1-454, looked up)
chain: MSDNDTIVAQATPPGRGGVGILRISGFKAREVAETVLGKLPKPRYADYLPFKDADGSVLDQGIALWFPGPNSFTGEDVLELQGHGGPVILDLLLKRILTIPGLRIARPGEFSERAFLNDKLDLAQAEAIADLIDASSEQAARSALNSLQGAFSARVNHLVEALTHLRIYVEAAIDFPDEEIDFLSDGKIEAQLNDVIADLDAVRAEARQGSLLREGMKVVIAGRPNAGKSSLLNALAGREAAIVTDIAGTTRDVLREHIHIDGMPLHIIDTAGLREASDEVERIGIERAWQEIEQADRVLFMVDGTTTDAVDPAEIWPEFIARLPAKLPITVVRNKADITGETLGMSEVNGHALIRLSARTGEGVDVLRNHLKQSMGFDTNMEGGFLARRRHLQALEQAAEHLQQGKAQLLGAWAGELLAEELRLAQQNLSEITGEFTSDDLLGRIFSSFCIGK
B2: FLAG-GidA (natural protein, E. coli, UniProt P0A6U3 1-629, looked up)
chain: MFYPDPFDVIIIGGGHAGTEAAMAAARMGQQTLLLTHNIDTLGQMSCNPAIGGIGKGHLVKEVDALGGLMAKAIDQAGIQFRILNASKGPAVRATRAQADRVLYRQAVRTALENQPNLMIFQQAVEDLIVENDRVVGAVTQMGLKFRAKAVVLTVGTFLDGKIHIGLDNYSGGRAGDPPSIPLSRRLRELPLRVGRLKTGTPPRIDARTIDFSVLAQQHGDNPMPVFSFMGNASQHPQQVPCYITHTNEKTHDVIRSNLDRSPMYAGVIEGVGPRYCPSIEDKVMRFADRNQHQIFLEPEGLTSNEIYPNGISTSLPFDVQMQIVRSMQGMENAKIVRPGYAIEYDFFDPRDLKPTLESKFIQGLFFAGQINGTTGYEEAAAQGLLAGLNAARLSADKEGWAPARSQAYLGVLVDDLCTLGTKEPYRMFTSRAEYRLMLREDNADLRLTEIGRELGLVDDERWARFNEKLENIERERQRLKSTWVTPSAEAAAEVNAHLTAPLSREASGEDLLRRPEMTYEKLTTLTPFAPALTDEQAAEQVEIQVKYEGYIARQQDEIEKQLRNENTLLPATLDYRQVSGLSNEVIAKLNDHKPASIGQASRISGVTPAAISILLVWLKKQGMLRRSA

Series [1] has as its target B2. Kind of series: native gel or EMSA. Background: In EMSA bound probe runs differently from free probe, usually more slowly.
Series [2] deals with the molecule itself. In words: SEC. Background: Size exclusion chromatography separates by hydrodynamic size, large species first.

Turning to B1, the “stoichiometry N” value in series [1] is 1 MnmE per GidA (α2β2, 2:2). Turning to B2, the “stoichiometry N” value in series [2] came to 2.

Usually stoichiometry N stands for a count of units in the complex or per binding partner.

Source of the values: publication PMC1635325 (Nucleic Acids Research, 2006).
